Experimental data from the DeepSol protein solubility set.

test: soluble on expression in E. coli; label from the status in PepcDB or PDB records

Sequence	soluble on expression in E. coli
MPAAPLCSPFPSPPPSFHTASLPFSIHAHHSPLPCDLDPPLYLAETVSLLEEWGPPSSCPMQCKLTSHPARLTHLPPCLWGFAVALKPSWAGLAPSLLPPPRMSLCRPLSFLRHQCPWLPWQAHQGLVPWSPSMVAAACIVSPSGHCRCQPFIPHVFLGHGGLTSVSGECG	soluble
YLYLEITNRCNLKCEMCFKQYWEDKEGDMDWDLFLKILDDAKEFPELKMIYFGGIGEPSVHPRFMDMVREVKRRGFRLGMSTNGVLLEDKILEEFVKLGVDVVYFSMDAIPTPSNIVTLGHITSKVVESRIKKLVELKKRYKTEKPTIGVEVVATKENYKQLPEMAIYLRNLGVDSMLISNLIPMTKEH	not soluble
MSLKPQVYHVDAFTSQPFRGNSAGVVFPADNLSEAQMQLIARELGHSETAFLLHSDDSDVRIRYFTPTVEVPICGHATVAAHYVRAKVLGLGNCTIWQTSLAGKHRVTIEKHNDDYRISLEQGTPGFEPPLEGETRAAIINALHLTEDDILPGLPIQVATTGHSKVMIPLKPEVDIDALSPDLNALTAISKKIGCNGFFPFQIRPGKNETDGRMFSPAIGIVEDPVTGNANGPMGAWLVHHNVLPHDGNVLRVKGHQGRALGRDGMIEVTVTIRDNQPEKVTISGTAVILFHAEWAIELEGGSHHHHHH	soluble
MHSLQNVIPQQQAHIAELQVYNNKLERDLQNKIGSLTSSIEWYLRSMELDPEIKADIEQQINSIDAINPLHAFDDLESVIRNLISDYDKLFLMFKGLIQRSNYQYSFGSE	soluble
MNRSDKWQQRVAQVAYRFNQQYQNQSLELPAEVQEMPIYREWISGILAGKIASPFWEMAQPQKNQHCLDIGCGVSFLIYPWRDWQAFFYGQDVSNVARDTLNSRGSQLNSKLFKGVELGAAHQLKYTLSYFDLAIATGFSCYFPLEYWTSVLQAVKRVLKPDGHFVFDILNAAHPQAEDWAVLETYLGAEVFLEPVTEWEKIINAAGAKVVGRQPGEFFDLYKLRLEHHHHHH	not soluble
MTISTNHSLASRQQLKQGKPFSILVLGTDVGALGRGTSYAGNTDTLELITVNPKKHTLTTTAIPRDTLVRVETKNKIEYTKINAAYALGGPREIKKQVHELLDVPVDYYALVNMGGLEKTVNAVGGVTVNNPFAFKYEGHTYPKGKQYLNGSEALGYSRMRYDDPDNDYGRQKRGQQVLLSALTKVNKSKNIMQMNSLLDTAKDNVRTDLPLDDLMTLYKNYHGALADTQSDHLQGKNATIDNFSFQIAPNWEMQRLSDNTRQALGLTKVKVNNIQTKMNDMQTNWNGYNNVNYVLPNNAQVYIPVNKVLEHHHHHH	soluble
MQYVKIKDSIVEQIEAGMLSPRQKLPAERKLAESFDTTRVTLREALSLLEAEGRIYREDRRGWFISPEPLRYDPTQTLNFPNMAKAQNRVPKTELIAAKGTLANKQSARLLQLQPFSDVFRVDRVRYLEDRPVVYVTNYIRPEIFPNLLSFDLTNSLTDIYREHFGVVYQKTRYRISTSTLLGEVAQALRATSGTPAMVVERTNYNQHGELIDCDIEYWRHDAISIESVAELNQ	not soluble
MAKSFNQAASELTDIFPNISLTGFDGVNYPVTVNCPMHGNVRYSTFNALIKSKYGCPECAKMSKTQTPPNVGKPLLILDTTTNETLTFPSVTAAGAALGVHFQQINHRLKGRTSPDNLISNRYKVLGYDR	not soluble
MNRFLKHWRLSGRCEAFHGQIISYADDFVILSRGHAEDALTWTKAVMTKLGLTLNETKTSVKNARLESFDFLGYTLGPRHFRNGGRWYLGAAPSKKSVLRIKRKVSELLTPGNKGAWPEVQARLNRLLRGWSAYFSYGSLATAHQAVDRHVFDRVLAFLRRRHKTPGRGVRRFSDQIYGNPGVLVLNRVRKVSPTCALLEHHHHHH	not soluble
MKYRDLRDFLAQLERQGELKRITAPVSTRLEMTEIADRVLRAGGPALLFENARHNDAPADMPVLANLFGTPRRVAWGMGADDVGALRETGELLASLREPEAPKGLRDALAKVSMLKAALWDMSPKTVRSAACQEIVWEGADVDLGRLPIQTCWPGDVAPLLAWGLVITRGPNARRQNLGIYRQQPLGPNKLIMRWLSHRGGALDFRDHAQAHPGKPFPIAVALGADPATILGAVTPVPDTLSEYQFAGLLRGSRTEVVKALGSDLSVPASAEIVLEGHLLPADDPRAVAAAVPEGANPPPATGYEMALEGPYGDHTGYYNEQDWFPVFTVDRITMRRNPIYHSTYTGKPPDEPAVLGVALNEVFVPLLRRQLPEIVDFYLPPEGCSYRLAVVSIRKQYAGHAKRVMFGLWSVLRQFMYTKFIVVVDEDIDPRDWTEVVWAMTTRMDPVRDTVLVENTPIDYLDFASPVSGLGGKMGLDATNKWPGETSREWGTPIHMDEAVKRRVDAMWDTLGLAAALEHHHHHH	not soluble
SDPEISEQDEEKKKYTSVCVGREEDIRKSERMTAVVHDREVVIFYHKGEYHAMDIRCYHSGGPLHLGEIEDFNGQSCIVCPWHKYKITLATGEGLYQSINPKDPSAKPKWCSKGVKQRIHTVKVDNGNIYVTLSKEPFKCDSDYYATGEFKVIQSSS	soluble
MTKVDFWPTLKDAYEPLYPQQLEILRQQVVSEGGPTATIQSRFNYAWGLIKSTDVNDERLGVKILTDIYKEAESRRRECLYYLTIGCYKLGEYSMAKRYVDTLFEHERNNKQVGALKSMVEDKIQKETL	soluble
MGSDKIHHHHHHMNEVLDEYRRLLSEVDHWFSRCIARSGEHIRCAEGCSECCRGLFDITLLDAALLKEGFDRLDAFTREQVLVKCRKRLAGLLRLWPEFAHPYMLNYRPEEEWELLMPDDDETPCPLLGADGRCLVYGFRPMTCRLHGLPLVDLTGEVLHDEWCTLNYVGGDPLADAGLRGEFTKIFREEVRLFRHFSERLLGQEFRELDTFIPTALLIDFTRFDWHRFAAGFSVTP	not soluble
MGSDKIHHHHHHMHTMHIPSGDVLIPKPKLITEETDPLHIIKTRQKTHGRPVTIAGPMVRYSKLPFRQLCREYNVDIVYSPMILAREYVRNEHARISDLSTNNEDTPLIVQVGVNNVADLLKFVEMVAPYCDGIGINCGCPIKEQIREGIGCALIYNSDLLCSMVHAVKDKYGDKLRIETKIRIHEALDETVELCRKLCDAGVDWITIHGRTRRTRSSQPANLDAIKYIIENISDKNVPVIANGDCFKLSDLERITKYTGAHGVMAVRGLLSNPALFAGYTTCPWGCIEKFCYWALEFGGLPFQLAQHHLYCMLENMELKKSLLKKMMNLKNYISLIDWFNKTFEFKRYGEDGFGMGVEIPYKANSCVQRSASVVERQE	not soluble
MSHLPLLALSPLDGRYLSKVDTLRPIFSEYGLIKSRVKVEIAWLLALAAEPNIVELAPFSVAAQTRLRVLADGLTIEHAARVKEIEHTTNHDVKAVEYFIKEQLKDDIELRRGLEFVHFACTSEDINNLSYSLMLQQARDDVLLPTLDGIATHLRTLAHAQAAQPMLSRTHGQTASPTTLGKEIANVVARLERQRHQIATIALSGKINGAVGNYNAHTISYPEVNWPALAQRFVESLGLVFNPYTTQIEPHDTIAEISDAIRRANTILIDLARDLWGYISLGYFKQKLKEGEIGSSTMPHKVNPIDFENAEGNFGVANALFEHFSTKLPISRWQRDLTDSTVLRALGTAFGHTQVALDSLNKGLHKLSPNPERIDADLDAAWEVLAEAVQTIMRRHNLPNPYEQLKALTRGQGITADSMRAFIETLDLPTEAKQRLHDLTPRAYTGLAKQLALNI	not soluble
MGSDKIHHHHHHMAAIAGLYVYPIKGLDSEHRSTATLRTHGQLHHDRTFTLVDSDTGSIVTAKRRPALHAFRTDYEPETGTLTVTDPDGQRASFSLGDDEGLSAAGDWFDSRLAVSVSMRSDPTGFVDRSDMGPAVVSTATLEAIADWFDSMTVAGARRRLRANIEIEGVPAFWEDRFVGDGAPAFEVGGVRFEGVTPCNRCVVPSRDPDTGEQLPEFRKTFCANRERTFPEWADGDAFDHEYAAMILARAPDISGGETLAVGDGVAVLDEAA	not soluble
MEHVAFGSEDIENTLAKMDDGQLDGLAFGAIQLDGDGNILQYNAAEGDITSRDPKQVIGKNFFKDVAPCTDSPEFYGKFKEGVASGNLNTMFEYTFDYQMTPTKVKVHMKKALSGDSYWVFVKRV	soluble
GSSGSSGMKQATRKPTTPGDILLYEYLEPLDLKINELAELLHVHRNSVSALINNNRKLTTEMAFRLAKVFDTTVDFWLNLQAAVDLWEVENNMRTQEELGRIETVAEYLARREERAKKVA	soluble
MKINTALGVAAGKSAHYLLSKMGRGSTYPGSLALKFDKDILDTIAKDYEIVVVTGTNGKTLTTALTVGILKEAFGQVVTNPSGANMITGIVSTFLTAKKSKSGKKIAVLEIDEASLPRITQYIKPSLFVFTNIFRDQMDRYGEIYTTYQMILDGAANAPQATILANGDSPLFNSKSVTNPVQFYGFNTDKHEPRLAHYNTEGILCPKCQAILTYRLNTYANLGDYTCPNCDFERPNLDYALTRLTHLTNTSSGFVIDGQQYNINVGGLYNIYNALAAVSVAEYFGVEPSQIKDGFDKSRAVFGRQETFTIGNKKCTLVLIKNPVGASQALDMIKLAPYPFSLSVLLNANYADGIDTSWIWDANFETILTMNIPEIFAGGVRHSEIARRLRVTGYDEKRIKQADKLQDIMTMIEQQETEHAYILATYTAMLEFREILANHNAIRKEMN	not soluble
MGVDKKQKQRKTNPFELKFNKSKHDILGRKKGAQVGAPTASRKRAHEQREQTLGVEYDRKNKISKIVDKRLGEKDGKSEEEKGAMRFTEERVKNYKRASKFNLTDDGDEEEEVLTHKGKALSDIEKYDKSMISDSDDDEEPGNLGSNMVKVAHFGGGEKTAEEHVREKISREDMISNLIAKTKLARHEKQQQKDELELMTESLDSKYQALMGKMKASFRPTGRQPLEKDDYDKLTITLKTEADARATPADRKLSEEEEALKEKERLETLEAAPDADVDIDAGSKADARKVQAKNSRFEVKFDDEGGLIDEDTVEKSRILKKNLDGSDESDDDEDLEDEEEDLDDLLEDEDELEEDSDDEEAQEAQKVVKKAKKSAPEPAETLPFVFEMPKNYKKFCALLEKHSESMDLVLERLVKCHHPSLKEGNKKRLNKLFLLCLRWFDDMSKEELTAESVKEMNLAQETMHALMKFDIQYGVRCVRALIRQHWKGRQDKQKSSPVSFGLISAIRLVSGLFPVADSWHPVVVPALFLATEALCSAKCANLNALAKQIQLANAIVEYVSESKRYVPELVAFARSALLLAVTEKSEKFATNGFPISKPHTEMLCFEEKYTGPALQPISLTTIFNNSPSDPSLKLHVLRALLSLIQHLRVIYSNQNETYSIVFKPFLRILESIQAKNLPAEVQEELETLCASMKAEIGAKCRLVHLSLVKTEKSMLKMLEPRFEWDFDPERPHHGPKDEKKKLTKNLRNERRGAIKELRKDTAFLARKQLSSVKTKDRARIAATKRVMGGLMQQQGEWNKEKRTADVEKKKDKK	soluble
MNVMTEKKKLVVWVPLPPNSSWRGEGIAQTIENIVRNISPERKIEIVVSSKHAEMLVGLEKSNPNISVLTLGFRGKSTKKTIGYVSLNEVEKDSLWDLVIAKLPIIPAIFRKVGMYVSQLEYLLSLYIYSHLQRRGRFSSNNCRVWLPTPIIPYTHLLGGEKFVSFWDPFVFEYNKEFPLTAEYFVKKLSKHFSNASAIITQSRANKDYLETVMGIESSKINVIYNGSPDYSEFKKQQSNLSFSEVWSKSEFSGASKKAAFEALVNHQLNFSVLWRLLTKNKVSNRKIVLISTQNRPYKGFDQLFVLINELCLRRDNYDFIFTCNVPTKLKERYPSLYERIHEVTRVDNYLHASLYLMSDIVLHPSNVEGGLGAYPQYEASSVGKPSLINTGRHVNEMAEEGFDVDLLSSNFVNTKETVDKIEKLINSEEYMRQNIDAINRLKISWKESASNYENVFFGNENA	not soluble
